In paper PMC9529347:

Target: SARS-CoV-1 RBD monomer (N321-P513) with C-terminal AVI-tag and 6xHIS-tag (SARS-CoV-1)
Assay: SPR

soluble human ACE2, truncated ectodomain (S19-D615), C-terminal 6xHIS-tag, sequence (Q9BYF1 19-615): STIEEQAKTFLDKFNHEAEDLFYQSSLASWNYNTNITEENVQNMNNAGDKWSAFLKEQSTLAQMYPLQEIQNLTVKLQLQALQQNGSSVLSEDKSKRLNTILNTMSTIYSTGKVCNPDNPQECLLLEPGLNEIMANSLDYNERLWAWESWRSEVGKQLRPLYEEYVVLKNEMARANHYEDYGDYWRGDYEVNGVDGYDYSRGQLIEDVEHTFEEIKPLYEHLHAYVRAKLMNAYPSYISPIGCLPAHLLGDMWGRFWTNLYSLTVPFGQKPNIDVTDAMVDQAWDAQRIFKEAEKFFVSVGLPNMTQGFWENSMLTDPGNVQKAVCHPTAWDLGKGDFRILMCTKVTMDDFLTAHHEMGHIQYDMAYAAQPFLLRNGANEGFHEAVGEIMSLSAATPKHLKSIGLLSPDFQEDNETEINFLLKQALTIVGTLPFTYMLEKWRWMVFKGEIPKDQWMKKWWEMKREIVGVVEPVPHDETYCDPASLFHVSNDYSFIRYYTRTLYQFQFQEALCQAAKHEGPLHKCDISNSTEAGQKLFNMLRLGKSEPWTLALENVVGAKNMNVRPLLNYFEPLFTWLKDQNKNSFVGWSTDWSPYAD

**Q.** For “soluble human ACE2, truncated ectodomain (S19-D615), C-terminal 6xHIS-tag (from UniProt Q9BYF1 19-615) (receptor)”, which Kd is on record?
**A.** The Kd was 253 nM.
